Tests used:
biotinylated GFP1-9 [1] = assay: cell-based or functional assay
GFP10-Link12-FRB-His×6 = assay: cell-based or functional assay
biotinylated GFP1-9 [2] = assay: mRNA display pull-down with biotinylated GFP1-9, qPCR; corrected with the display efficiency
biotinylated GFP1-9 [3] = assay: mRNA display pull-down: 0.42 µM Display molecule with 1 µM biotinylated GFP1-9, streptavidin beads, TEV elution, qPCR
[4] = molecular target: anti-ubiquitin antibody (Mouse IgG1 monoclonal antibody; clone name FK2); assay: mRNA display pull-down on anti-ubiquitin antibody (FK2) magnetic beads, heat elution, qPCR
[5] = molecular target: anti-ubiquitin antibody (Mouse IgG1 monoclonal antibody; clone name FK2); assay: mRNA display pull-down on anti-ubiquitin antibody (FK2) magnetic beads, qPCR; corrected with the display efficiency
[6] = molecular target: anti-ubiquitin antibody (Mouse IgG1 monoclonal antibody; clone name FK2); assay: mRNA display pull-down on anti-ubiquitin antibody (FK2) magnetic beads, qPCR
[7] = molecular target: anti-ubiquitin antibody (Mouse IgG1 monoclonal antibody; clone name FK2); assay: mRNA display pull-down on anti-ubiquitin antibody (FK2) magnetic beads, qPCR; 1:1 mixture of the two display molecules
[8] = molecular target: anti-ubiquitin antibody (Mouse IgG1 monoclonal antibody; clone name FK2); assay: mRNA display pull-down on anti-ubiquitin antibody (FK2) magnetic beads, qPCR; 1:1 mixture; corrected with the display efficiency

His×6-FKBP12-Link12-GFP11, sequence (chain): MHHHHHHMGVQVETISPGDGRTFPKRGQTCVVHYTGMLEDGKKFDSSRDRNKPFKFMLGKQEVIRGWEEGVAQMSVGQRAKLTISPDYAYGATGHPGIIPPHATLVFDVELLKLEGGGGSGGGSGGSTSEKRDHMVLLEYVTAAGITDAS
GFP10-11 fusion peptide (peptide; modification not given; biotinylated at the Avi tag (co-expression with BirA)), sequence (chain, as listed by the source): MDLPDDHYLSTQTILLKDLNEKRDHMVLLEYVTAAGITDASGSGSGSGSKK
GFP10-Link12-FRB-His×6, sequence (chain): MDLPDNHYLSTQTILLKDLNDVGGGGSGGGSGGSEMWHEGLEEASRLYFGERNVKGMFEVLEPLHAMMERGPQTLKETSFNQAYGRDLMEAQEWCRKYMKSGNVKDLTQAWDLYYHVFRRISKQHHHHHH

GFP10-Link12-FRB-His×6 was tested, and the Recovered nucleic acid amount (molecules) of compound nk06 by pull-down with biotinylated GFP1-9; Condition 4, FKBP12-GFP11 absent (biotinylated GFP1-9 [1]) was 2.24e+08 molecules and the Recovery rate (%) of compound nk06 by pull-down with biotinylated GFP1-9; Condition 4, FKBP12-GFP11 absent (biotinylated GFP1-9 [1]) was 0.055%.

With His×6-FKBP12-Link12-GFP11 the Recovered nucleic acid amount (molecules) of compound nk06 (rapamycin-nucleic acid) by pull-down with biotinylated GFP1-9; Condition 1, all three proteins at 1 µM (GFP10-Link12-FRB-His×6) was 3.5e+10 molecules, the Recovery rate (%) of compound nk06 (rapamycin-nucleic acid) by pull-down with biotinylated GFP1-9; Condition 1, all three proteins at 1 µM (GFP10-Link12-FRB-His×6) was 8.62% and the Recovered nucleic acid amount (molecules) of compound nk06 by pull-down with biotinylated GFP1-9; Condition 3, GFP10-FRB absent (biotinylated GFP1-9 [1]) was 8.21e+08 molecules. It also gave a Recovery rate (%) of compound nk06 by pull-down with biotinylated GFP1-9; Condition 3, GFP10-FRB absent (biotinylated GFP1-9 [1]) of 0.202%.

“GFP10-11 fusion peptide (peptide; modification not given; biotinylated at the Avi tag (co-expression with BirA))” showed a Recovery rate (%) (biotinylated GFP1-9 [2]) of 23.4%, an Apparent recovery rate (%) (biotinylated GFP1-9 [3]) of 13.1% and a Recovered nucleic acid amount (molecules) (biotinylated GFP1-9 [3]) of 1.31e+11 molecules.

splitUb(C) (peptide) was tested, and the Apparent recovery rate (%) [4] was 0.571%, the Recovered nucleic acid amount (molecules) [4] was 1.16e+10 molecules and the Recovery rate (%) [5] was 1.01%.

For splitUb(N-C), the fold higher recovery rate than the other controls [6] was > 16 times, the Apparent recovery rate (%) [4] was 12.3% and the Recovered nucleic acid amount (molecules) [4] was 6.69e+10 molecules. The Recovery rate (%) [5] was 16.1%.

With splitUb (N) + splitUb (C) the Apparent recovery rate (%) [7] was 0.194%, the Recovered nucleic acid amount (molecules) [7] was 7.16e+09 molecules and the Recovery rate (%) [8] was 0.344%.

Source: US20240069033A1, “METHOD FOR SCREENING FOR CANDIDATE MOLECULE CAPABLE OF FORMING COMPLEX IN CONJUNCTION WITH PLURALITY OF TARGET MOLECULES” (Chugai Seiyaku Kabushiki Kaisha, priority 2020, published 2024)
